Columns and labels:
Assay in all cases: pull-down binding Z-score (relative to library population); higher = stronger binding
[1] = tested on: TO-N3-2 (biotin conjugate); conditions: RNA library: Library-2
In short: (§1)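 Binding is given as a Z-score against the library mean and standard deviation, calculated after removing the beads-only signal and averaging barcoded replicate probes without their highest and lowest values. Cy5- or Cy3-end-labelled RNA library (1 μg) was heat-folded in phosphate/NaCl/KCl buffer and incubated 60 min at 25 °C with streptavidin beads bearing 100 pmol of biotin-conjugated small molecule. After three washes, RNA eluted in hot SDS was hybridised to a DNA barcode microarray for 20 h at 55.5 °C.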

[2] = tested on: G-clamp-N3 (biotin conjugate); conditions: RNA library: Library-1 (pre-miRNA loops + repeats)
In short: as §1

[3] = tested on: TO-3-N3 (biotin conjugate); conditions: RNA library: Library-2
In short: as §1

[4] = tested on: TO-3-N3-2 (biotin conjugate); conditions: RNA library: Library-2
In short: as §1

TO-N3 (biotin conjugate) = conditions: RNA library: Library-2
In short: as §1

Sequence	pull-down binding Z-score [1]	pull-down binding Z-score [2]	pull-down binding Z-score [3]	pull-down binding Z-score [4]	pull-down binding Z-score (TO-N3 (biotin conjugate))
GGCGCUGUCUUGAGACAUUCGCGCAGUGCA [hsa-mir-3177]	2.23	-0.296	-0.111	-0.209	0.646
CCUUCCAAUACCUGUAAGCAGAAGG [hsa-mir-3158-2]	0.397	0.355	0.0988	0.0627	0.0957
CAUGCGCUAUCUCUGUGUCGUAUG [hsa-mir-380]	-0.0393	-0.269	-0.0846	-0.301	-0.0621
UUGUGUGGUAUCCGUAUAGUCACAG [hsa-mir-10b]	-0.0857	-0.0547	-0.416	-0.634	-0.277
GGAGGCCCCGCCCUGCUGCCGACCCUGUGGAGCGGAGGGUGAAGCCUCC [hsa-mir-3180-5]	1.98	0.844	0.326	0.0715	1.1
AGUUCAGGAGGUGGCACUGCUGUGUGUGAGCU [hsa-mir-6876]	1.27	1.55	0.801	0.631	0.97
CAAUGAAGACAUGAAGACCCAAUGUCUUCAUUG [hsa-mir-4529]	-1.1	-0.114	-0.88	-0.347	-1.17
CAGUGCACCUUCAUGAACCG [hsa-mir-938]	1.14	-1.11	0.249	0.209	0.758
CUUUGGUGGCUAUGGUUGACUGGGCCACUCAGAG [hsa-mir-4468]	0.846	2.29	-0.366	-0.332	-0.123
CUGCAGAACAUUGCAG [hsa-mir-4310]	-1.08	0.0291	-0.487	-0.408	-0.727
AUUUCUGUGUUCGUUAGGCAACAG [hsa-mir-221]	0.324	0.12	0.785	0.283	1.07
UUGUGUCCAUCAUGCAACAA [hsa-mir-802]	0.396	-1.17	-0.49	-0.248	-0.144
GGCUGCGUGCCACCCGGGCAGCU [hsa-mir-3194]	0.701	1.93	-0.341	-0.183	-0.112
UUGUCUCCUCAAGUUGCGACGAGACAG [hsa-mir-4645]	-0.585	-1.13	-0.254	-0.451	-0.358
CUCCGGGUUGGGG [hsa-mir-1469]	-0.557	0.177	-0.552	-0.476	-0.718
GGGAGCAUGAACAAUGUUUCUCACUCCC [hsa-mir-3162]	1.13	1.01	0.186	-0.49	0.299
UGCAGUGCUGGGCAUGGGCUUCUCG [hsa-mir-3677]	1.54	0.689	1.07	0.328	1.49
AGGGCUGGGAUUACUAAAGCCCU [hsa-mir-1266]	-0.335	1.24	-0.0287	-0.105	-0.158
